Test results from publication doi:10.1101/2024.06.13.598860, “The Mlh1-Pms1 endonuclease uses ATP to preserve DNA discontinuities as strand discrimination signals to facilitate mismatch repair”.

B1: intact 75-mer duplex (dsDNA)
DNA 1: TCGACCTAAGTCTAGCAGGTCACGTCACGCTACCGAATTCTGACTTGCTAGGACATCTTTGCTCACGTTGACCCA
DNA 2: TGGGTCAACGTGAGCAAAGATGTCCTAGCAAGTCAGAATTCGGTAGCGTGACGTGACCTGCTAGACTTAGGTCGA
B2: discontinuous 75-mer duplex (single strand break) (dsDNA)
DNA 1: B1 DNA 1
DNA 2: TGGGTCAACGTGAGCAAAGATGTCCTAGCAAGTCAGA
DNA 3: ATTCGGTAGCGTGACGTGACCTGCTAGACTTAGGTCGA

Key:
Mlh1-Pms1 [1] = biological target: T1, Mlh1-Pms1 (Saccharomyces cerevisiae (yeast), UniProt P38920;P14242 1-769;1-873); assay: EMSA; 120 mM NaCl, no ATP; 20 mM HEPES-KOH (pH not given), 0.1 mM DTT, 2 mM MgCl2, 40 ug/mL BSA, 6% glycerol; plasmid DNA 3.8 nM, 10 min room temperature, agarose EMSA; oligonucleotides plus 120 mM NaCl, 10 min 4 C, 4% PAGE; conditions: protein: recombinant, copies: 1;1, label: 5'-32P on CMO169
T1 sequence (P38920 whole entry, chain 1 of 2): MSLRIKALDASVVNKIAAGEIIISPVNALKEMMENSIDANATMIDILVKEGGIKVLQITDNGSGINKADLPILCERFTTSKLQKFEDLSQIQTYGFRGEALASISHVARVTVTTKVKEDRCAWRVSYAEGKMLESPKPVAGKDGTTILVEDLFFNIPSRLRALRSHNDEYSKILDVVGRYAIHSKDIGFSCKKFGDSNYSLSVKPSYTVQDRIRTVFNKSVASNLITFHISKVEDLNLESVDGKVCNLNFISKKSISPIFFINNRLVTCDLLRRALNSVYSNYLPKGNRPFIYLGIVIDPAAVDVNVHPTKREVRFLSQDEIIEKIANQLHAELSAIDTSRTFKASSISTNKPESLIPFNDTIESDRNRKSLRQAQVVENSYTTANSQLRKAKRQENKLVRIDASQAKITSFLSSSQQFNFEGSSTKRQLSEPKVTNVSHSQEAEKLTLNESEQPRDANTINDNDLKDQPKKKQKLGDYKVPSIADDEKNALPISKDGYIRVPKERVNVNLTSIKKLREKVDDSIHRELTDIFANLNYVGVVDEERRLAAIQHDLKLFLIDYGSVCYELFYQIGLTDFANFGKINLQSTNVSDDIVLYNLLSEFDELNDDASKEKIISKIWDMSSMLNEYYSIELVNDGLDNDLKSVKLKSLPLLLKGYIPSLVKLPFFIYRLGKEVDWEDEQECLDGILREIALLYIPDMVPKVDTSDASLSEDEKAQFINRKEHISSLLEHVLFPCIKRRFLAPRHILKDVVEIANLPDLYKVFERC
T1 sequence (P14242 whole entry, chain 2 of 2): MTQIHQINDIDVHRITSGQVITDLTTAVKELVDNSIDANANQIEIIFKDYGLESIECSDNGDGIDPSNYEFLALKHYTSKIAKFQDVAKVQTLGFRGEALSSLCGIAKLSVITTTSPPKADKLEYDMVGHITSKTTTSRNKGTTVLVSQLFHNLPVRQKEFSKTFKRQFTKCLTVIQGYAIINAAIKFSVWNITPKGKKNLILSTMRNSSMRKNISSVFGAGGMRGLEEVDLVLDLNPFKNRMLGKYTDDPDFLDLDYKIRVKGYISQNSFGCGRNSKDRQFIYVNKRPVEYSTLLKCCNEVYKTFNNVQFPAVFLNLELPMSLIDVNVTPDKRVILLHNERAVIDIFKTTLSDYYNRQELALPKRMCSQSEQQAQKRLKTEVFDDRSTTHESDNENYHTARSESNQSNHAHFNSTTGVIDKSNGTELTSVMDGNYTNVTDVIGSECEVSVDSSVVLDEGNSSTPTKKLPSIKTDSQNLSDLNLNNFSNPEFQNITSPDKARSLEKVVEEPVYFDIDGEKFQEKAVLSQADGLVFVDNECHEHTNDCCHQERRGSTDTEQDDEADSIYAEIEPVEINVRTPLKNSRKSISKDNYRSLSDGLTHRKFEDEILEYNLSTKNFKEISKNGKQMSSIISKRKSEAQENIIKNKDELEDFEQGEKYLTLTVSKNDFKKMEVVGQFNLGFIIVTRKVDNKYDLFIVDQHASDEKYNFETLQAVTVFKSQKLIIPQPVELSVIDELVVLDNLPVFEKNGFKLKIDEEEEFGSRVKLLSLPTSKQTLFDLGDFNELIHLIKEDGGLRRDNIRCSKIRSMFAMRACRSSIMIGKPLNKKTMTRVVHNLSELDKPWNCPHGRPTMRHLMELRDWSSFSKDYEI

Mlh1-Pms1 [2] = biological target: T1, Mlh1-Pms1; assay: EMSA; 120 mM NaCl, 0.5 mM ATP; 20 mM HEPES-KOH (pH not given), 0.1 mM DTT, 2 mM MgCl2, 40 ug/mL BSA, 6% glycerol; plasmid DNA 3.8 nM, 10 min room temperature, agarose EMSA; oligonucleotides plus 120 mM NaCl, 10 min 4 C, 4% PAGE; conditions: protein: recombinant, copies: 1;1, label: 5'-32P on CMO169
[3] = nicked duplex, blunt ends, 1:2 1:3, nick between strands 2 and 3

Binder	Kd (Mlh1-Pms1 [1]; blunt) [nM]	Kd (Mlh1-Pms1 [2]; blunt) [nM]	Kd (Mlh1-Pms1 [1]; [3]) [nM]	Kd (Mlh1-Pms1 [2]; [3]) [nM]
B1	96 ± 20	79 ± 8		
B2			79 ± 3	77 ± 6
